Earlier results, collected in paper PMC6165679.

Legend:
[1] = target: APJ receptor (Homo sapiens) (UniProt P35414)
[2] = target: APJ receptor (Homo sapiens) (UniProt P35414); experiment: competition binding

UniProt P35414, sequence (P35414 whole entry): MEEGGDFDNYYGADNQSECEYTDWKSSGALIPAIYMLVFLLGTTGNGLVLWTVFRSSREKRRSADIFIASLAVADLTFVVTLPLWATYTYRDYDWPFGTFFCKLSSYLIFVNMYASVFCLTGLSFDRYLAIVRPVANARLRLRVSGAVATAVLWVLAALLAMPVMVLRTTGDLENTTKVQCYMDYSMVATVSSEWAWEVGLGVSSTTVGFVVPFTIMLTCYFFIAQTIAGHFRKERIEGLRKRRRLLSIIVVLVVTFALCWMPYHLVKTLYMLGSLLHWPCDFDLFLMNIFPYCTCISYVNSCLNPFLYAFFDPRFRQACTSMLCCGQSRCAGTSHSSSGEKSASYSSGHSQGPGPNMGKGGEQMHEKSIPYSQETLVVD

**Q.** For cyclo(1–6)CRPRLC-KH-cyclo(9–14)CRPRLC, which Ki [1] is on record?
**A.** 82 nM

**Q.** And the Kd [2]?
**A.** 3200 nM
